Key:
Details in all cases: Sus scrofa
NC/C=C(\CO)C(=O)O [1] = assay: Compound was tested for the inhibitory effect against Gamma-amino-N-butyrate transaminase from pig brain, activity expressed as Vmax
NC/C=C(\CF)C(=O)O = assay: (§1) Compound was tested for the inhibitory effect against Gamma-amino-N-butyrate transaminase from pig brain, activity expressed as Km
NC/C=C(\CO)C(=O)O [2] = assay: as §1

4-aminobutyrate aminotransferase, mitochondrial (Sus scrofa), P80147, sequence (P80147 whole entry): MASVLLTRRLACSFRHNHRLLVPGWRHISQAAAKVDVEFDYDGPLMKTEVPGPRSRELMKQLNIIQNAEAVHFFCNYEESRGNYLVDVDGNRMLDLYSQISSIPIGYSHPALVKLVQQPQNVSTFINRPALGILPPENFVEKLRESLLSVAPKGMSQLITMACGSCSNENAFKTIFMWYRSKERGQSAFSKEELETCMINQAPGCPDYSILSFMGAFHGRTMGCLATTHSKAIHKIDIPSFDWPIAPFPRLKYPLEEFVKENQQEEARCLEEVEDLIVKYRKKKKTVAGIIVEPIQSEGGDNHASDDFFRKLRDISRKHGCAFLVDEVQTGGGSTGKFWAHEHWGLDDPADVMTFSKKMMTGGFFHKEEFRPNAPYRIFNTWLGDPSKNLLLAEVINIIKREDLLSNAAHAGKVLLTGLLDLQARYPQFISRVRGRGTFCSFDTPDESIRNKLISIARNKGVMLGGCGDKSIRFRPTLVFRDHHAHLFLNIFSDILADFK

Question: For “4-aminobutyrate aminotransferase, mitochondrial (Sus scrofa), P80147”, which Vmax (NC/C=C(\CO)C(=O)O [1]) is on record?
Answer: Its Vmax is 0.012 µM/min/mg.

Question: And the Km (NC/C=C(\CF)C(=O)O)?
Answer: Its Km is 140 µM.

Question: And the Km (NC/C=C(\CO)C(=O)O [2])?
Answer: Its Km is 10 µM.

Source: ChEMBL document CHEMBL1123179, “4-Amino-2-(substituted methyl)-2-butenoic acids: substrates and potent inhibitors of gamma-aminobutyric acid aminotransferase” (J Med Chem, 1986)
